Values quoted from earlier work, collected in article PMC4372107.
Where “and” joins values, the source holds several entries; their conditions need not be identical. Identical values can stand only once.

Biological target: U2AF65 RRM123 (Homo sapiens) (UniProt P26368)
Test: ITC

UniProt P26368, sequence (P26368 148-475, one chain of several): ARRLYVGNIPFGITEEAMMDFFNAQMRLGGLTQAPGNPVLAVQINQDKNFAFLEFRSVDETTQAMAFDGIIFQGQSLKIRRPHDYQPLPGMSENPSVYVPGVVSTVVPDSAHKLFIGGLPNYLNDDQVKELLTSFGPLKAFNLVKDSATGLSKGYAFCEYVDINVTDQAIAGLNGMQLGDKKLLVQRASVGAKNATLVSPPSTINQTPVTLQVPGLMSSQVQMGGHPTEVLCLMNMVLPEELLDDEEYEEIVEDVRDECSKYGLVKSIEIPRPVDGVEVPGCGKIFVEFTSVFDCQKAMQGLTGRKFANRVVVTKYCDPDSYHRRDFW

Kd: 114 nM and 96 nM
Substance: SF1 (from UniProt Q15637)
